Test results taken from the supplement of paper PMC6757056.
± gives the standard deviation of the averaged measurements.

B1: library; a variant is named by its letters at N, in order (parent)
chain: GCUGUCACCGAGAAACUGUGAAGUAUAUCUUAAACCUGGGCACUUAAAAGAUAUAUGGAGUUAGUAGUGCAACCUGCUCGGUCUGAUGAGUCCNNNNNNGGACGAAACAGC

Experiments:
cyclic di-GMP [1] = variants of: B1; assay: normalized RNA/DNA level without ligand (relative to sTRSVctl = 100) (log10 (% of sTRSVctl)); HEK293T; ligand: cyclic di-GMP (c-di-GMP-II aptamer); higher = less ribozyme self-cleavage, higher mRNA level; conditions: reporter: mCherry (pCS4076), ligand present: no
Procedure, shortened: (§1)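 For each 6-well well, 4 µg of library plasmid encoding mCherry-linked ribozyme switches, or eGFP-linked ones in some ligand experiments, was transfected into HEK293T. Any ligand was added 1 h before transfection, and RNA was extracted with EDTA 72 h after it, then reverse-transcribed, amplified, barcoded and sequenced. RNA level was obtained by dividing RNA reads by DNA reads, normalizing to a spiked-in non-cleaving sequence or to the top sequences, then scaling and log-transforming. The top set was 25 sequences, scaling was ×100 with log10, and ≥100 DNA reads were required.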

cyclic di-GMP [2] = variants of: B1; assay: normalized RNA/DNA level with ligand (relative to sTRSVctl = 100) (log10 (% of sTRSVctl)); HEK293T; ligand: cyclic di-GMP (c-di-GMP-II aptamer); ligand concentration (+) RNA-Seq: 1 mM; higher = less ribozyme self-cleavage, higher mRNA level; conditions: reporter: mCherry (pCS4076), ligand present: yes
Procedure, shortened: as §1

Variant | normalized RNA/DNA level without ligand (log10) (cyclic di-GMP [1]) | normalized RNA/DNA level with ligand (log10) (cyclic di-GMP [2])
CACCGG | 1.754 ± 0.011 | 1.89 ± 0.12
CACCGU | 1.706 ± 0.0036 | 1.81 ± 0.092
CACCGA | 1.6252 ± 0.00013 | 1.8 ± 0.1
CACCGC | 1.759 ± 0.015 | 1.85 ± 0.13
CACGGC | 1.747 ± 0.0044 | 1.89 ± 0.11
CACGGU | 1.685 ± 0.015 | 1.84 ± 0.064
CACGGG | 1.63 ± 0.04 | 1.8 ± 0.06
AACUAC | 1.7 ± 0.019 | 1.84 ± 0.12
AACUAG | 1.616 ± 0.0088 | 1.78 ± 0.13
AACUAU | 1.662 ± 0.014 | 1.79 ± 0.11
AACUGU | 1.7 ± 0.023 | 1.85 ± 0.1
AACUGC | 1.686 ± 0.0067 | 1.82 ± 0.089
UACUUA | 1.7 ± 0.055 | 1.84 ± 0.11
UACUUG | 1.734 ± 0.0022 | 1.89 ± 0.063
UACUUC | 1.763 ± 0.0059 | 1.87 ± 0.12
GACCAU | 1.64 ± 0.022 | 1.79 ± 0.13
GACCAC | 1.69 ± 0.056 | 1.85 ± 0.12
GACCAA | 1.52 ± 0.083 | 1.71 ± 0.065
GACCAG | 1.82 ± 0.088 | 1.91 ± 0.13
GAAUAU | 1.59 ± 0.039 | 1.79 ± 0.077
CACUGG | 1.7 ± 0.035 | 1.81 ± 0.13
CACUGA | 1.65 ± 0.039 | 1.77 ± 0.1
CACUGC | 1.76 ± 0.024 | 1.87 ± 0.096

Variant | normalized RNA/DNA level without ligand (log10) (cyclic di-GMP [1]) | normalized RNA/DNA level with ligand (log10) (cyclic di-GMP [2])
AAAUGG | 1.5 ± 0.092 | 1.68 ± 0.076
UACAAA | 1.65 ± 0.041 | 1.8 ± 0.057
UACAAU | 1.64 ± 0.017 | 1.77 ± 0.13
UACAAG | 1.69 ± 0.02 | 1.8 ± 0.12
AACCAC | 1.668 ± 0.0054 | 1.81 ± 0.11
AACCAG | 1.6 ± 0.035 | 1.73 ± 0.13
CAAUUU | 1.51 ± 0.095 | 1.71 ± 0.081
CAAUUC | 1.66 ± 0.019 | 1.82 ± 0.065
CAAUUA | 1.32 ± 0.1 | 1.53 ± 0.05
CAAUUG | 1.733 ± 0.0033 | 1.87 ± 0.065
UACACG | 1.76 ± 0.029 | 1.86 ± 0.088
UACACA | 1.7 ± 0.041 | 1.84 ± 0.083
UACACU | 1.714 ± 0.014 | 1.84 ± 0.059
UACACC | 1.6664 ± 0.0013 | 1.8 ± 0.1
CAAUGG | 1.664 ± 0.0083 | 1.8 ± 0.087
CAAUGA | 1.53 ± 0.056 | 1.74 ± 0.12
CAAUGC | 1.76 ± 0.076 | 1.83 ± 0.14
AACACC | 1.56 ± 0.007 | 1.73 ± 0.12
AACACG | 1.55 ± 0.073 | 1.74 ± 0.088
UACGAG | 1.674 ± 0.0019 | 1.82 ± 0.1
UACGAC | 1.67 ± 0.017 | 1.82 ± 0.11
UACGAU | 1.63 ± 0.046 | 1.8 ± 0.15
AACUCG | 1.66 ± 0.047 | 1.82 ± 0.085

Variant | normalized RNA/DNA level without ligand (log10) (cyclic di-GMP [1]) | normalized RNA/DNA level with ligand (log10) (cyclic di-GMP [2])
AACUCA | 1.65 ± 0.035 | 1.8 ± 0.088
AACUCU | 1.73 ± 0.06 | 1.88 ± 0.12
GAAUUA | 1.55 ± 0.026 | 1.74 ± 0.097
GAAUUC | 1.8 ± 0.021 | 1.92 ± 0.09
GAAUUU | 1.652 ± 0.015 | 1.85 ± 0.12
UACCUC | 1.79 ± 0.0062 | 1.93 ± 0.093
UACCUA | 1.68 ± 0.018 | 1.82 ± 0.081
UACCUG | 1.724 ± 0.0039 | 1.87 ± 0.091
UACCUU | 1.637 ± 0.0055 | 1.82 ± 0.12
CACAAG | 1.66 ± 0.017 | 1.83 ± 0.11
CACAAU | 1.47 ± 0.11 | 1.68 ± 0.097
CACAAC | 1.59 ± 0.028 | 1.77 ± 0.085
AACCUA | 1.51 ± 0.041 | 1.71 ± 0.13
AACCUC | 1.757 ± 0.0019 | 1.85 ± 0.058
AACCUG | 1.57 ± 0.029 | 1.73 ± 0.092
AAAUUA | 1.54 ± 0.04 | 1.75 ± 0.11
AAAUUU | 1.67 ± 0.067 | 1.82 ± 0.17
AAAUUC | 1.6899 ± 0.00096 | 1.85 ± 0.11
GAGAAA | 1.6011 ± 0.00083 | 1.72 ± 0.1
GAGAAC | 1.65 ± 0.031 | 1.8 ± 0.09
GAGAAU | 1.663 ± 0.011 | 1.76 ± 0.098
AAGAAG | 1.46 ± 0.049 | 1.66 ± 0.093
UAAUCC | 1.8 ± 0.031 | 1.89 ± 0.077

Variant | normalized RNA/DNA level without ligand (log10) (cyclic di-GMP [1]) | normalized RNA/DNA level with ligand (log10) (cyclic di-GMP [2])
UAAUCA | 1.756 ± 0.0092 | 1.87 ± 0.072
CACGCC | 1.81 ± 0.044 | 1.86 ± 0.022
CACGCU | 1.722 ± 0.0093 | 1.84 ± 0.12
CACGCG | 1.73 ± 0.028 | 1.83 ± 0.062
UAAUAU | 1.64 ± 0.017 | 1.78 ± 0.11
GACCUU | 1.69 ± 0.0029 | 1.86 ± 0.13
GACCUC | 1.72 ± 0.047 | 1.86 ± 0.12
GACGUU | 1.619 ± 0.0079 | 1.81 ± 0.12
GACGUA | 1.665 ± 0.013 | 1.8 ± 0.085
GACGUG | 1.71 ± 0.052 | 1.83 ± 0.11
GACGUC | 1.671 ± 0.014 | 1.87 ± 0.1
UACAGC | 1.619 ± 0.0088 | 1.77 ± 0.11
UACAGU | 1.62 ± 0.021 | 1.8 ± 0.069
UACAGG | 1.65 ± 0.044 | 1.82 ± 0.081
CACUUU | 1.51 ± 0.057 | 1.7 ± 0.17
CACUUC | 1.71 ± 0.022 | 1.83 ± 0.16
GACGCC | 1.75 ± 0.092 | 1.83 ± 0.11
GACGCA | 1.77 ± 0.055 | 1.88 ± 0.085
GACGCU | 1.71 ± 0.043 | 1.81 ± 0.097
GACGCG | 1.81 ± 0.055 | 1.88 ± 0.045
AACCGU | 1.54 ± 0.056 | 1.74 ± 0.091
AACCGA | 1.5 ± 0.1 | 1.61 ± 0.089
AACCGC | 1.718 ± 0.0043 | 1.86 ± 0.1

Variant | normalized RNA/DNA level without ligand (log10) (cyclic di-GMP [1]) | normalized RNA/DNA level with ligand (log10) (cyclic di-GMP [2])
UACUAC | 1.75 ± 0.037 | 1.87 ± 0.08
UACUAA | 1.71 ± 0.014 | 1.81 ± 0.061
UACUAG | 1.697 ± 0.012 | 1.84 ± 0.09
CAAUAG | 1.73 ± 0.024 | 1.83 ± 0.14
CACGAC | 1.67 ± 0.053 | 1.83 ± 0.13
CACGAU | 1.68 ± 0.032 | 1.83 ± 0.089
CACGAG | 1.63 ± 0.028 | 1.81 ± 0.076
AACGUC | 1.66 ± 0.024 | 1.78 ± 0.11
AACGUU | 1.65 ± 0.056 | 1.82 ± 0.16
AACGUG | 1.55 ± 0.083 | 1.7 ± 0.096
AACGUA | 1.51 ± 0.024 | 1.73 ± 0.1
UACCAG | 1.701 ± 0.003 | 1.83 ± 0.11
UACCAA | 1.66 ± 0.022 | 1.8 ± 0.12
UACCAC | 1.698 ± 0.0019 | 1.82 ± 0.11
UACGUC | 1.69 ± 0.06 | 1.81 ± 0.13
UACGUA | 1.64 ± 0.018 | 1.8 ± 0.056
UACGUU | 1.684 ± 0.0031 | 1.84 ± 0.093
AAAUAG | 1.54 ± 0.025 | 1.7 ± 0.16
CACCAG | 1.74 ± 0.03 | 1.88 ± 0.11
CACCAA | 1.4 ± 0.088 | 1.57 ± 0.1
CACCAU | 1.593 ± 0.0031 | 1.75 ± 0.11
CACCAC | 1.675 ± 0.0098 | 1.85 ± 0.096
GACCGC | 1.81 ± 0.036 | 1.8 ± 0.083
